Data reported in paper PMC9482650, “Quantitative fragmentomics allow affinity mapping of interactomes” (Nature Communications, 2022).

Columns and labels:
Test in all cases: holdup assay
Design in all cases: key: below the threshold = too weak to quantify, mostly under pKd 3.1 to 4
LIN7C, Q9NUP9 = target: T1, LIN7C, Q9NUP9
T1 sequence (Q9NUP9 88-185, limits assumed, looked up): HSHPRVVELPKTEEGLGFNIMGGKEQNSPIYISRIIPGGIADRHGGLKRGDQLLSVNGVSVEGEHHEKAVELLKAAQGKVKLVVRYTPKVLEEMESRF

Inadl_8, Q8NI35 = target: Inadl_8, Q8NI35
Sequence of Inadl_8, Q8NI35 (Q8NI35 1425-1530): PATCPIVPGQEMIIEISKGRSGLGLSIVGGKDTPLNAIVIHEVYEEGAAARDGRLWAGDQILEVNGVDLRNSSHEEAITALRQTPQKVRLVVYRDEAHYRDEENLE

HTRA2, O43464 = target: HTRA2, O43464
Sequence of HTRA2, O43464 (O43464 355-458): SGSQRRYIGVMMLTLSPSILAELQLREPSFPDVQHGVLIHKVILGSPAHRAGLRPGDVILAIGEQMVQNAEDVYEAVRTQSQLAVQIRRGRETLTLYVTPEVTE

SYNJ2BP, P57105 = target: T2, SYNJ2BP, P57105
T2 sequence (P57105 8-110, limits assumed, looked up): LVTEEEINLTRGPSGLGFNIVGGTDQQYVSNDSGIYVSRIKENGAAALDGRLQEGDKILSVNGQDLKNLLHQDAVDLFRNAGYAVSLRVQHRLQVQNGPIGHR

SNTG2, Q9NY99 = target: T3, SNTG2, Q9NY99
T3 sequence (Q9NY99 68-166, limits assumed, looked up): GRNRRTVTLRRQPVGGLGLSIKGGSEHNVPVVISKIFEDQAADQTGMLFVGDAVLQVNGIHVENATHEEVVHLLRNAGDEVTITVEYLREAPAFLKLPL

NHERF4_1, Q86UT5-2 = target: NHERF4_1, Q86UT5-2
Sequence of NHERF4_1, Q86UT5-2 (Q86UT5 other isoform, or with tags, fused parts or gaps): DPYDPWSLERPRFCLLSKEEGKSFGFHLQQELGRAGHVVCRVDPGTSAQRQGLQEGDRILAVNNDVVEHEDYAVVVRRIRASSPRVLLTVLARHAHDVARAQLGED

PICK1, Q9NRD5 = target: PICK1, Q9NRD5
Sequence of PICK1, Q9NRD5 (Q9NRD5 17-115): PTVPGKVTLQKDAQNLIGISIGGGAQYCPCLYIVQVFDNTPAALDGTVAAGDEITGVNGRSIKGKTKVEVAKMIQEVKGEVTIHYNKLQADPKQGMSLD

MAGI3_2, Q5TCQ9 = target: MAGI3_2, Q5TCQ9
Sequence of MAGI3_2, Q5TCQ9 (Q5TCQ9 398-503): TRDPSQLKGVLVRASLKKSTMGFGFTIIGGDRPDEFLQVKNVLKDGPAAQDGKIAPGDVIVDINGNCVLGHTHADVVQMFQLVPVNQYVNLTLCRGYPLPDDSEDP

PDZRN4_1, Q6ZMN7 = target: PDZRN4_1, Q6ZMN7
Sequence of PDZRN4_1, Q6ZMN7 (Q6ZMN7 213-318): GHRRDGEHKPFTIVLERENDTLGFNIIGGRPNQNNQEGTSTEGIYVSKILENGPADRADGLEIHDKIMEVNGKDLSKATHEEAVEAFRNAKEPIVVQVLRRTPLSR

RHPN1, Q8TCX5 = target: T4, RHPN1, Q8TCX5
T4 sequence (Q8TCX5 508-602, limits assumed, looked up): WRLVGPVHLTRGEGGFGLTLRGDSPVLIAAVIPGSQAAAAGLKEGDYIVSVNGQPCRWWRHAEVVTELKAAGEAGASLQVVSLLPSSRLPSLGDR

FRMPD2_3, Q68DX3 = target: FRMPD2_3, Q68DX3
Sequence of FRMPD2_3, Q68DX3 (Q68DX3 1073-1166): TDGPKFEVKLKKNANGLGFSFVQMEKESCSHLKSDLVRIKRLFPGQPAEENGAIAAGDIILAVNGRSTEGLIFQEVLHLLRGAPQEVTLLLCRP

DFNB31_1, Q9P202 = target: T5, DFNB31_1, Q9P202
T5 sequence (Q9P202 135-233, limits assumed, looked up): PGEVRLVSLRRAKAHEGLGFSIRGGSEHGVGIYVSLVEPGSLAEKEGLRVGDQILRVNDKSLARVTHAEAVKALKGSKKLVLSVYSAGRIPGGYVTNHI

LNX1_1, Q8TBB1 = target: LNX1_1, Q8TBB1
Sequence of LNX1_1, Q8TBB1 (Q8TBB1 261-371): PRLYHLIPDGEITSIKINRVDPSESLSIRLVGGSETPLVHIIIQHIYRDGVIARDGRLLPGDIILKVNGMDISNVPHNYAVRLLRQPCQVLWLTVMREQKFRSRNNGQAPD

DLG1_2, Q12959 = target: DLG1_2, Q12959
Sequence of DLG1_2, Q12959 (Q12959 314-412): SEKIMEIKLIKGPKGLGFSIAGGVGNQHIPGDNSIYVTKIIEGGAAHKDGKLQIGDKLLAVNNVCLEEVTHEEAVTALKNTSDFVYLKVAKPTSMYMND

MPDZ_12, O75970 = target: T6, MPDZ_12, O75970
T6 sequence (O75970 1857-1958, limits assumed, looked up): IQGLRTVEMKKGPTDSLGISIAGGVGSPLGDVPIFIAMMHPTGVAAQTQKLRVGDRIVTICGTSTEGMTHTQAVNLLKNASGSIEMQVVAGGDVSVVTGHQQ

MAGI1_1, Q96QZ7 = target: MAGI1_1, Q96QZ7
Sequence of MAGI1_1, Q96QZ7 (Q96QZ7 1-106): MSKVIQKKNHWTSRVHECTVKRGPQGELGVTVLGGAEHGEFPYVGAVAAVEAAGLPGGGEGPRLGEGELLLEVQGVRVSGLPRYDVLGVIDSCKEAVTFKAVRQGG

FRMPD4, Q14CM0 = target: FRMPD4, Q14CM0
Sequence of FRMPD4, Q14CM0 (Q14CM0 67-160): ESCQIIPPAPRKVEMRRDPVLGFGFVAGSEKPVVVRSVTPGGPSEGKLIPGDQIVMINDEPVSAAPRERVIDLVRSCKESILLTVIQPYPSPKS

TJP2_1, Q9UDY2 = target: TJP2_1, Q9UDY2
Sequence of TJP2_1, Q9UDY2 (Q9UDY2 24-128): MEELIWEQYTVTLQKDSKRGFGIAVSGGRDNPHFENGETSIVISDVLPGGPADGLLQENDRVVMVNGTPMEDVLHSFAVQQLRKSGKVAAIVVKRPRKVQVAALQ

TJP3_3, O95049 = target: T7, TJP3_3, O95049
T7 sequence (O95049 375-456, limits assumed, looked up): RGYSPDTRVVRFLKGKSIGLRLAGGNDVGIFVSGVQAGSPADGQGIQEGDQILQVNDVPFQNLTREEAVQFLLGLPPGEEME

FRMPD3, Q5JV73 = target: FRMPD3, Q5JV73
Sequence of FRMPD3, Q5JV73 (Q5JV73 12-100): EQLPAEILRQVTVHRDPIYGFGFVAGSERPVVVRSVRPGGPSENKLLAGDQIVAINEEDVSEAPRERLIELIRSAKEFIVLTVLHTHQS

Inadl_5, Q8NI35 = target: Inadl_5, Q8NI35
Sequence of Inadl_5, Q8NI35 (Q8NI35 673-780): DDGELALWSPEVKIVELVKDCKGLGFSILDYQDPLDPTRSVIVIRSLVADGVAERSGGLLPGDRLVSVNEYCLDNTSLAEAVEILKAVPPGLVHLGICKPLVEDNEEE

SHANK1, Q9Y566 = target: T8, SHANK1, Q9Y566
T8 sequence (Q9Y566 658-767, limits assumed, looked up): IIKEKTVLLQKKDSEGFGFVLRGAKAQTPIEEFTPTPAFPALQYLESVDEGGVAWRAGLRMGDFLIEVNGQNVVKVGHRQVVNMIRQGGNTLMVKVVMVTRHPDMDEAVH

SCRIB_2, Q14160 = target: SCRIB_2, Q14160
Sequence of SCRIB_2, Q14160 (Q14160 857-960): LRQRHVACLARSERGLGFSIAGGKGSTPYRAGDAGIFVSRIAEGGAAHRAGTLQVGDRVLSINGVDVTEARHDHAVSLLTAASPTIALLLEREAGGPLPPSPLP

DLG4_2, P78352 = target: DLG4_2, P78352
Sequence of DLG4_2, P78352 (P78352 155-259): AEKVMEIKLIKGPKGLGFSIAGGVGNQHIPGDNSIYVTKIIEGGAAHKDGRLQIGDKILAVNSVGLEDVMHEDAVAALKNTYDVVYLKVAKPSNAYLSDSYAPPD

Inadl_10, Q8NI35 = target: Inadl_10, Q8NI35
Sequence of Inadl_10, Q8NI35 (Q8NI35 1673-1763): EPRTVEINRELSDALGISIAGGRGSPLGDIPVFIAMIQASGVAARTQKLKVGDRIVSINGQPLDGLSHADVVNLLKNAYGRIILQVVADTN

IL16_3, Q14005 = target: IL16_3, Q14005
Sequence of IL16_3, Q14005 (Q14005 1107-1207): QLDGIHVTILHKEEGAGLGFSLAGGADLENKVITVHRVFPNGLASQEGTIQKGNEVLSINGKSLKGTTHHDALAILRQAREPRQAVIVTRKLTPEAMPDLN

FRMPD2_1, Q68DX3 = target: FRMPD2_1, Q68DX3
Sequence of FRMPD2_1, Q68DX3 (Q68DX3 770-861): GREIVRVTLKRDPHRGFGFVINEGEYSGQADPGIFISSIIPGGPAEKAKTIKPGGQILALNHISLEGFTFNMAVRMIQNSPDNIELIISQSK

LRRC7, Q96NW7 = target: T9, LRRC7, Q96NW7
T9 sequence (Q96NW7 1440-1537, limits assumed, looked up): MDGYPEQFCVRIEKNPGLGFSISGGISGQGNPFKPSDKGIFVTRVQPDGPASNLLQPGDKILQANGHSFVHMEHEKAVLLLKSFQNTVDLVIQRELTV

[1] = plain residues with an end cap or a label only (N-terminal biotin on a linker: ado-ado)
[2] = plain residues with an end cap or a label only (N-terminal biotin on a linker: ahx)

SLNANEVEWF [RNF130, Q86XS8]
pKd (LIN7C, Q9NUP9; [1]): 3.96
pKd (Inadl_8, Q8NI35; [1]): below the threshold
pKd (HTRA2, O43464; [1]): 3.51
pKd (SYNJ2BP, P57105; [1]): below the threshold
pKd (SNTG2, Q9NY99; [1]): below the threshold
pKd (NHERF4_1, Q86UT5-2; [1]): 3.89
pKd (PICK1, Q9NRD5; [1]): below the threshold
pKd (MAGI3_2, Q5TCQ9; [1]): below the threshold
pKd (PDZRN4_1, Q6ZMN7; [1]): below the threshold
pKd (RHPN1, Q8TCX5; [1]): 3.5
pKd (FRMPD2_3, Q68DX3; [1]): 3.49
pKd (DFNB31_1, Q9P202; [1]): below the threshold
pKd (LNX1_1, Q8TBB1; [1]): 3.75
pKd (DLG1_2, Q12959; [1]): below the threshold
pKd (MPDZ_12, O75970; [1]): below the threshold
pKd (MAGI1_1, Q96QZ7; [1]): below the threshold
pKd (FRMPD4, Q14CM0; [1]): 3.5
pKd (TJP2_1, Q9UDY2; [1]): 3.67
pKd (TJP3_3, O95049; [1]): 3.6
pKd (FRMPD3, Q5JV73; [1]): 4.07
pKd (Inadl_5, Q8NI35; [1]): 3.51
pKd (SHANK1, Q9Y566; [1]): 3.82
pKd (SCRIB_2, Q14160; [1]): 3.57
pKd (DLG4_2, P78352; [1]): 3.51
pKd (Inadl_10, Q8NI35; [1]): below the threshold
pKd (IL16_3, Q14005; [1]): below the threshold
pKd (FRMPD2_1, Q68DX3; [1]): below the threshold
pKd (LRRC7, Q96NW7; [1]): below the threshold

EKQAKGDTEF [CACYBP, Q9HB71]
pKd (LIN7C, Q9NUP9; [2]): below the threshold
pKd (Inadl_8, Q8NI35; [2]): below the threshold
pKd (HTRA2, O43464; [2]): below the threshold
pKd (SYNJ2BP, P57105; [2]): below the threshold
pKd (SNTG2, Q9NY99; [2]): below the threshold
pKd (NHERF4_1, Q86UT5-2; [2]): below the threshold
pKd (PICK1, Q9NRD5; [2]): below the threshold
pKd (MAGI3_2, Q5TCQ9; [2]): below the threshold
pKd (PDZRN4_1, Q6ZMN7; [2]): below the threshold
pKd (RHPN1, Q8TCX5; [2]): below the threshold
pKd (FRMPD2_3, Q68DX3; [2]): below the threshold
pKd (DFNB31_1, Q9P202; [2]): below the threshold
pKd (LNX1_1, Q8TBB1; [2]): below the threshold
pKd (DLG1_2, Q12959; [2]): below the threshold
pKd (MPDZ_12, O75970; [2]): below the threshold
pKd (MAGI1_1, Q96QZ7; [2]): below the threshold
pKd (FRMPD4, Q14CM0; [2]): 3.55
pKd (TJP2_1, Q9UDY2; [2]): below the threshold
pKd (TJP3_3, O95049; [2]): below the threshold
pKd (FRMPD3, Q5JV73; [2]): 3.81
pKd (Inadl_5, Q8NI35; [2]): below the threshold
pKd (SHANK1, Q9Y566; [2]): below the threshold
pKd (SCRIB_2, Q14160; [2]): below the threshold
pKd (DLG4_2, P78352; [2]): below the threshold
pKd (Inadl_10, Q8NI35; [2]): below the threshold
pKd (IL16_3, Q14005; [2]): below the threshold
pKd (FRMPD2_1, Q68DX3; [2]): below the threshold
pKd (LRRC7, Q96NW7; [2]): below the threshold

KPGKGSETVV [FZD4, Q9ULV1]
pKd (LIN7C, Q9NUP9; [1]): 4.08
pKd (Inadl_8, Q8NI35; [1]): 3.49
pKd (HTRA2, O43464; [1]): below the threshold
pKd (SYNJ2BP, P57105; [1]): 4.3
pKd (SNTG2, Q9NY99; [1]): 4.26
pKd (NHERF4_1, Q86UT5-2; [1]): below the threshold
pKd (PICK1, Q9NRD5; [1]): below the threshold
pKd (MAGI3_2, Q5TCQ9; [1]): 5.64
pKd (PDZRN4_1, Q6ZMN7; [1]): 3.51
pKd (RHPN1, Q8TCX5; [1]): 3.89
pKd (FRMPD2_3, Q68DX3; [1]): below the threshold
pKd (DFNB31_1, Q9P202; [1]): 3.91
pKd (LNX1_1, Q8TBB1; [1]): below the threshold
pKd (DLG1_2, Q12959; [1]): 5.12
pKd (MPDZ_12, O75970; [1]): below the threshold
pKd (MAGI1_1, Q96QZ7; [1]): below the threshold
pKd (FRMPD4, Q14CM0; [1]): below the threshold
pKd (TJP2_1, Q9UDY2; [1]): below the threshold
pKd (TJP3_3, O95049; [1]): below the threshold
pKd (FRMPD3, Q5JV73; [1]): below the threshold
pKd (Inadl_5, Q8NI35; [1]): below the threshold
pKd (SHANK1, Q9Y566; [1]): below the threshold
pKd (SCRIB_2, Q14160; [1]): 3.83
pKd (DLG4_2, P78352; [1]): 4.92
pKd (Inadl_10, Q8NI35; [1]): below the threshold
pKd (IL16_3, Q14005; [1]): below the threshold
pKd (FRMPD2_1, Q68DX3; [1]): 3.54
pKd (LRRC7, Q96NW7; [1]): below the threshold

TRKRSGEAAV [PFKM, P08237]
pKd (LIN7C, Q9NUP9; [1]): below the threshold
pKd (Inadl_8, Q8NI35; [1]): 3.57
pKd (HTRA2, O43464; [1]): below the threshold
pKd (SYNJ2BP, P57105; [1]): 4.06
pKd (SNTG2, Q9NY99; [1]): below the threshold
pKd (NHERF4_1, Q86UT5-2; [1]): below the threshold
pKd (PICK1, Q9NRD5; [1]): 4.18
pKd (MAGI3_2, Q5TCQ9; [1]): 4.48
pKd (PDZRN4_1, Q6ZMN7; [1]): below the threshold
pKd (RHPN1, Q8TCX5; [1]): below the threshold
pKd (FRMPD2_3, Q68DX3; [1]): 3.97
pKd (DFNB31_1, Q9P202; [1]): below the threshold
pKd (LNX1_1, Q8TBB1; [1]): below the threshold
pKd (DLG1_2, Q12959; [1]): 3.95
pKd (MPDZ_12, O75970; [1]): below the threshold
pKd (MAGI1_1, Q96QZ7; [1]): below the threshold
pKd (FRMPD4, Q14CM0; [1]): 3.58
pKd (TJP2_1, Q9UDY2; [1]): below the threshold
pKd (TJP3_3, O95049; [1]): below the threshold
pKd (FRMPD3, Q5JV73; [1]): below the threshold
pKd (Inadl_5, Q8NI35; [1]): below the threshold
pKd (SHANK1, Q9Y566; [1]): below the threshold
pKd (SCRIB_2, Q14160; [1]): below the threshold
pKd (DLG4_2, P78352; [1]): 3.93
pKd (Inadl_10, Q8NI35; [1]): below the threshold
pKd (IL16_3, Q14005; [1]): below the threshold
pKd (FRMPD2_1, Q68DX3; [1]): 4
pKd (LRRC7, Q96NW7; [1]): below the threshold
